Where a SMILES comes first, the peptide text is derived from it. The star is where a group is joined. ξ: configuration not given here. Biotin = O=C1N[C@H]2[C@H](CS[C@H]2CCCCC(=O)*)N1; Lipoyl(6ξ) = O=C(CCCCC1CCSS1)*; X2 = CC(O)(CC(=O)O)CC(=O)*; X1 = CC(C)(CC(=O)*)C(=O)O

The values below come from ChEMBL document CHEMBL4229465, “SIRT4 is the last puzzle of mitochondrial sirtuins” (Bioorg Med Chem, 2018).

Data set [1] addresses T1, NAD-dependent protein lipoamidase sirtuin-4, mitochondrial (Homo sapiens) (UniProt Q9Y6E7).
T1 sequence (whole entry): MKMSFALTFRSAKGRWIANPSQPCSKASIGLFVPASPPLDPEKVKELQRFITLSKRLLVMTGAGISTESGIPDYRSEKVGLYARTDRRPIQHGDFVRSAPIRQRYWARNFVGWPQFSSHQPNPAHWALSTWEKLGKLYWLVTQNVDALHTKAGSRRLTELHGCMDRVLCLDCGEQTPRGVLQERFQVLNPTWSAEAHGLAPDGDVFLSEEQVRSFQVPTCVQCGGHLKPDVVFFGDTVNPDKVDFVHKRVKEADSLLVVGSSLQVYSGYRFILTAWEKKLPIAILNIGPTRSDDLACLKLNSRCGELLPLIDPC
As to the kind of experiment: Ratio of Kcat to Km at recombinant SIRT4 (unknown origin).

Data set [2] deals with T2, NAD-dependent protein deacetylase sirtuin-2 (Homo sapiens) (UniProt Q8IXJ6).
T2 sequence (whole entry): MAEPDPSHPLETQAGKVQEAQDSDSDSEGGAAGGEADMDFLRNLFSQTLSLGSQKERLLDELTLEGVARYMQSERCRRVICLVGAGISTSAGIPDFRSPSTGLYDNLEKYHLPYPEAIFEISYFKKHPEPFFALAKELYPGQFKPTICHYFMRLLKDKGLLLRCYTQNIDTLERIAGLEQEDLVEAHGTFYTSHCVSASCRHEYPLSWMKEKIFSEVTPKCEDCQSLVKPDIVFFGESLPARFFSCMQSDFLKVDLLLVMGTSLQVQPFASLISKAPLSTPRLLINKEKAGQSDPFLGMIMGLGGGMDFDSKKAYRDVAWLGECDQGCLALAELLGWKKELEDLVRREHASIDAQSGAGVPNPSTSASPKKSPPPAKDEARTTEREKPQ
As to the kind of experiment: Ratio of Kcat to Km at human SIRT2 (36 to 356 residues) expressed in Escherichia coli rosetta cells.

The target of data set [3] is T1, NAD-dependent protein lipoamidase sirtuin-4, mitochondrial (Homo sapiens). As to the kind of experiment: Ratio of Kcat to Km at human N-terminal His6-tagged SIRT4 (25 to 314 residues) expressed in Escherichia coli codon plus (DE3).
Compound in data set [4]: CC(=O)NCCCC[C@H](NC(=O)[C@H](CCCNC(=N)N)NC(=O)[C@H](C)NC(=O)[C@@H](NC(=O)[C@H](CCC(N)=O)NC(=O)[C@@H](N)CCCCN)[C@@H](C)O)C(=O)N[C@@H](CO)C(=O)N[C@H](C(=O)NCC(=O)NCC(=O)O)[C@@H](C)O
As to the kind of experiment: (§1) Activity at recombinant SIRT4 (unknown origin) in presence of NAD by LC-MS analysis. The note with it: Homo sapiens.

Compound in data set [5]: CC[C@H](C)[C@H](NC(=O)[C@@H](NC(=O)[C@H](C)NC(=O)[C@H](CCCCNC(=O)CCCCC1CCSS1)NC(=O)[C@H](CC(=O)O)NC(=O)[C@@H](NC(=O)[C@H](CCC(=O)O)NC(=O)[C@@H](NC(=O)[C@@H](N)CCC(=O)O)[C@@H](C)CC)[C@@H](C)O)[C@@H](C)O)C(=O)NCC(=O)O
The description is as §1. The note with it: Homo sapiens.

Compound in data set [6]: CC[C@H](C)[C@H](NC(=O)[C@@H](NC(=O)[C@H](C)NC(=O)[C@H](CCCCNC(C)=O)NC(=O)[C@H](CC(=O)O)NC(=O)[C@@H](NC(=O)[C@H](CCC(=O)O)NC(=O)[C@@H](NC(=O)[C@@H](N)CCC(=O)O)[C@@H](C)CC)[C@@H](C)O)[C@@H](C)O)C(=O)NCC(=O)O
The data set is described as §1. The note with it: Homo sapiens.

Compound in data set [7]: CC[C@H](C)[C@H](NC(=O)[C@H](CC(N)=O)NC(=O)[C@H](CCCCNC(C)=O)NC(=O)[C@H](CO)NC(=O)CNC(=O)[C@H](CC(C)C)NC(=O)[C@H](Cc1ccc(O)cc1)NC(=O)[C@@H](N)CO)C(=O)N[C@@H](CCCCN)C(=O)N[C@@H](C)C(=O)N[C@@H](CO)C(=O)N[C@@H](CCC(=O)O)C(=O)O
Described as §1. As to conditions: Homo sapiens.

Compound in data set [8]: C[C@H](NC(=O)[C@@H](NC(=O)[C@H](CCC(N)=O)NC(=O)[C@@H](N)CCCCN)[C@@H](C)O)C(=O)N[C@@H](CCCNC(=N)N)C(=O)N[C@@H](CCCCNC(=O)CCCCC1CCSS1)C(=O)N[C@@H](CO)C(=O)N[C@H](C(=O)NCC(=O)NCC(=O)O)[C@@H](C)O
Described as §1. The note with it: Homo sapiens.

Compound in data set [9]: C[C@H](NC(=O)[C@@H](NC(=O)[C@H](CCC(N)=O)NC(=O)[C@@H](N)CCCCN)[C@@H](C)O)C(=O)N[C@@H](CCCNC(=N)N)C(=O)N[C@@H](CCCCNC(=O)CCCC[C@@H]1SC[C@@H]2NC(=O)N[C@@H]21)C(=O)N[C@@H](CO)C(=O)N[C@H](C(=O)NCC(=O)NCC(=O)O)[C@@H](C)O
The description is as §1. As to conditions: Homo sapiens.

Substrate in data set [10]: CC(=O)NCCCC[C@H](NC(=O)[C@H](CC(C)C)NC(=O)[C@@H](NC(=O)CN)C(C)C)C(=O)N[C@@H](CCC(=O)O)C(=O)N[C@@H](Cc1ccc(O)cc1)C(=O)NCC(=O)N[C@H](C(=O)O)C(C)C
As to the kind of experiment: (§2) Activity at human N-terminal His6-tagged SIRT4 (25 to 314 residues) expressed in Escherichia coli codon plus (DE3).

Substrate in data set [11]: CC(C)C[C@H](NC(=O)[C@@H](NC(=O)CN)C(C)C)C(=O)N[C@@H](CCCCNC(=O)CC(C)(C)C(=O)O)C(=O)N[C@@H](CCC(=O)O)C(=O)N[C@@H](Cc1ccc(O)cc1)C(=O)NCC(=O)N[C@H](C(=O)O)C(C)C
The description is as §2.

Substrate in data set [12]: CC(C)C[C@H](NC(=O)[C@@H](NC(=O)CN)C(C)C)C(=O)N[C@@H](CCCCNC(=O)CC(C)(O)CC(=O)O)C(=O)N[C@@H](CCC(=O)O)C(=O)N[C@@H](Cc1ccc(O)cc1)C(=O)NCC(=O)N[C@H](C(=O)O)C(C)C
Described as §2.

Substrate in data set [13]: CC(C)C[C@H](NC(=O)[C@@H](NC(=O)CN)C(C)C)C(=O)N[C@@H](CCCCNC(=O)CCCCC1CCSS1)C(=O)N[C@@H](CCC(=O)O)C(=O)N[C@@H](Cc1ccc(O)cc1)C(=O)NCC(=O)N[C@H](C(=O)O)C(C)C
The data set is described as §2.

Take `CC[C@H](C)[C@H](NC(=O)[C@@H](NC(=O)[C@H](C)NC(=O)[C@H](CCCCNC(=O)CCCCC1CCSS1)NC(=O)[C@H](CC(=O)O)NC(=O)[C@@H](NC(=O)[C@H](CCC(=O)O)NC(=O)[C@@H](NC(=O)[C@@H](N)CCC(=O)O)[C@@H](C)CC)[C@@H](C)O)[C@@H](C)O)C(=O)NCC(=O)O` (stereo partly drawn) (H-EIETDK(Lipoyl(6ξ))ATIG-OH): the Ratio in [1] amounted to 7.65 s⁻¹ M⁻¹.

Consider `C[C@H](NC(=O)[C@@H](NC(=O)[C@H](CCC(N)=O)NC(=O)[C@@H](N)CCCCN)[C@@H](C)O)C(=O)N[C@@H](CCCNC(=N)N)C(=O)N[C@@H](CCCCNC(=O)CCCC[C@@H]1SC[C@@H]2NC(=O)N[C@@H]21)C(=O)N[C@@H](CO)C(=O)N[C@H](C(=O)NCC(=O)NCC(=O)O)[C@@H](C)O` (H-KQTARK(Biotin)STGG-OH), for which the Ratio in data set [1] was 0.74 s⁻¹ M⁻¹.

Consider H-KQLATK(Ac)AARKS-OH, for which the Ratio in [2] was 3130 s⁻¹ M⁻¹.

Turning to H-KQTARK(Ac)STGG-OH, the Ratio in data set [1] was 0.083 s⁻¹ M⁻¹.

Consider H-EIETDK(Ac)ATIG-OH, for which, in data set [1], the Ratio was 0.2 s⁻¹ M⁻¹.

`CC(C)C[C@H](NC(=O)[C@@H](NC(=O)CN)C(C)C)C(=O)N[C@@H](CCCCNC(=O)CCCCC1CCSS1)C(=O)N[C@@H](CCC(=O)O)C(=O)N[C@@H](Cc1ccc(O)cc1)C(=O)NCC(=O)N[C@H](C(=O)O)C(C)C` (stereo partly drawn) (H-GVLK(Lipoyl(6ξ))EYGV-OH): the Ratio in data set [3] was 170 s⁻¹ M⁻¹.

Turning to H-SYLGSK(Ac)NIKASE-OH, the Ratio in data set [1] was 0.0064 s⁻¹ M⁻¹.

In the case of `CC(C)C[C@H](NC(=O)[C@@H](NC(=O)CN)C(C)C)C(=O)N[C@@H](CCCCNC(=O)CC(C)(O)CC(=O)O)C(=O)N[C@@H](CCC(=O)O)C(=O)N[C@@H](Cc1ccc(O)cc1)C(=O)NCC(=O)N[C@H](C(=O)O)C(C)C` (stereo partly drawn) (H-GVLK(X2)EYGV-OH), the Ratio in data set [3] was 546 s⁻¹ M⁻¹.

Turning to `C[C@H](NC(=O)[C@@H](NC(=O)[C@H](CCC(N)=O)NC(=O)[C@@H](N)CCCCN)[C@@H](C)O)C(=O)N[C@@H](CCCNC(=N)N)C(=O)N[C@@H](CCCCNC(=O)CCCCC1CCSS1)C(=O)N[C@@H](CO)C(=O)N[C@H](C(=O)NCC(=O)NCC(=O)O)[C@@H](C)O` (stereo partly drawn) (H-KQTARK(Lipoyl(6ξ))STGG-OH), in [1], the Ratio came out at 2.3 s⁻¹ M⁻¹.

Take `CC(C)C[C@H](NC(=O)[C@@H](NC(=O)CN)C(C)C)C(=O)N[C@@H](CCCCNC(=O)CC(C)(C)C(=O)O)C(=O)N[C@@H](CCC(=O)O)C(=O)N[C@@H](Cc1ccc(O)cc1)C(=O)NCC(=O)N[C@H](C(=O)O)C(C)C` (H-GVLK(X1)EYGV-OH): the Ratio in data set [3] is 412 s⁻¹ M⁻¹.

Take H-GVLK(Ac)EYGV-OH: the Ratio in data set [3] is 3.7 s⁻¹ M⁻¹.

B1: NAD-dependent protein lipoamidase sirtuin-4, mitochondrial (Homo sapiens), Q9Y6E7 (protein)
chain: MKMSFALTFRSAKGRWIANPSQPCSKASIGLFVPASPPLDPEKVKELQRFITLSKRLLVMTGAGISTESGIPDYRSEKVGLYARTDRRPIQHGDFVRSAPIRQRYWARNFVGWPQFSSHQPNPAHWALSTWEKLGKLYWLVTQNVDALHTKAGSRRLTELHGCMDRVLCLDCGEQTPRGVLQERFQVLNPTWSAEAHGLAPDGDVFLSEEQVRSFQVPTCVQCGGHLKPDVVFFGDTVNPDKVDFVHKRVKEADSLLVVGSSLQVYSGYRFILTAWEKKLPIAILNIGPTRSDDLACLKLNSRCGELLPLIDPC
Take B1: the Km (as a rule, the concentration of substrate that gives half-maximal velocity) in data set [4] is > 2500 µM; in data set [5] it was 239 µM; in [6], > 2500 µM; in [7], > 2500 µM; in [8], 814 µM; in data set [9], 719 µM. Besides, the Km is 2340 µM in [10], 17.7 µM in data set [11], 9.7 µM in data set [12] and 10.1 µM in data set [13]. Also, the kcat (usually the maximal rate divided by the concentration of active sites) was determined as 0.0018 s⁻¹ in data set [5]; 0.0019 s⁻¹ in data set [8]; 0.0005 s⁻¹ in data set [9]; 0.0087 s⁻¹ in data set [10]; 0.0073 s⁻¹ in [11]; 0.0053 s⁻¹ in data set [12]. Also, in data set [13], the kcat amounted to 0.0017 s⁻¹.
